Sequences and labels used below:
B1: hu2H11R35R74-PEG4-NHAc-DM4 (antibody, human IgG1, kappa, V domains shown)
VH: QVQLVQSGAEVVKPGASVKISCKASGYTFTAYYMHWVKQSPVQSLEWIGLVNPYNGFSSYNQKFQGKASLTVDRSSSTAYMELHSLTSEDSAVYYCAREFYGYRYFDVWGQGTAVTVSS
VL: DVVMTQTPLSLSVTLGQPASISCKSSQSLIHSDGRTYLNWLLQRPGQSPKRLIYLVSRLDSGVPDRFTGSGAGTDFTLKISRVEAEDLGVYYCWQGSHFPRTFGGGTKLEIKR
modifications: may carry L-DM4 through the AcNH-PEG4 linker; sites not stated; maytansinoid L-DM4 attached through the AcNH-PEG4 linker (NHS activated ester; sites not stated); average DAR (UV) 5.9 for the whole antibody
B2: hu2H11R35R74-PEG4-NMeAc-DM4 (antibody, human IgG1, kappa, V domains shown)
VH: QVQLVQSGAEVVKPGASVKISCKASGYTFTAYYMHWVKQSPVQSLEWIGLVNPYNGFSSYNQKFQGKASLTVDRSSSTAYMELHSLTSEDSAVYYCAREFYGYRYFDVWGQGTAVTVSS
VL: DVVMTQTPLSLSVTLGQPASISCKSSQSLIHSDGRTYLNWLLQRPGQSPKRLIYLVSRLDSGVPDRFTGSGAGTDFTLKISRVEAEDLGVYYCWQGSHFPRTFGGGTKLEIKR
modifications: may carry L-DM4 through the AcNMe-PEG4 linker; sites not stated; maytansinoid L-DM4 attached through the AcNMe-PEG4 linker (NHS activated ester; sites not stated); average DAR (UV) 5.4 for the whole antibody
B3: hu2H11R35R74-PEG4-Allyl-DM4 (antibody, human IgG1, kappa, V domains shown)
VH: QVQLVQSGAEVVKPGASVKISCKASGYTFTAYYMHWVKQSPVQSLEWIGLVNPYNGFSSYNQKFQGKASLTVDRSSSTAYMELHSLTSEDSAVYYCAREFYGYRYFDVWGQGTAVTVSS
VL: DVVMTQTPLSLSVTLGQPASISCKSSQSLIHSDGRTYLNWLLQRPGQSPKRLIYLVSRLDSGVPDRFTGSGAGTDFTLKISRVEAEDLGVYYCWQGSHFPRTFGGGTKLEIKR
modifications: may carry L-DM4 through the Allyl-PEG4 linker; sites not stated; maytansinoid L-DM4 attached through the Allyl-PEG4 linker (NHS activated ester; sites not stated); average DAR (UV) 5.3 for the whole antibody
B4: hu2H11R35R74-PEG8-NHAc-DM4 (antibody, human IgG1, kappa, V domains shown)
VH: QVQLVQSGAEVVKPGASVKISCKASGYTFTAYYMHWVKQSPVQSLEWIGLVNPYNGFSSYNQKFQGKASLTVDRSSSTAYMELHSLTSEDSAVYYCAREFYGYRYFDVWGQGTAVTVSS
VL: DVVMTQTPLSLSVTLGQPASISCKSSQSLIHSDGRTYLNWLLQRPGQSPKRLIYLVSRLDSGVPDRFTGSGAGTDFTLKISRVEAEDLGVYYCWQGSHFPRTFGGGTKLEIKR
modifications: may carry L-DM4 through the AcNH-PEG8 linker; sites not stated; maytansinoid L-DM4 attached through the AcNH-PEG8 linker (NHS activated ester; sites not stated); average DAR (UV) 4.9 for the whole antibody

Chain of EphA2 receptor (P29317 24-976 limits assumed): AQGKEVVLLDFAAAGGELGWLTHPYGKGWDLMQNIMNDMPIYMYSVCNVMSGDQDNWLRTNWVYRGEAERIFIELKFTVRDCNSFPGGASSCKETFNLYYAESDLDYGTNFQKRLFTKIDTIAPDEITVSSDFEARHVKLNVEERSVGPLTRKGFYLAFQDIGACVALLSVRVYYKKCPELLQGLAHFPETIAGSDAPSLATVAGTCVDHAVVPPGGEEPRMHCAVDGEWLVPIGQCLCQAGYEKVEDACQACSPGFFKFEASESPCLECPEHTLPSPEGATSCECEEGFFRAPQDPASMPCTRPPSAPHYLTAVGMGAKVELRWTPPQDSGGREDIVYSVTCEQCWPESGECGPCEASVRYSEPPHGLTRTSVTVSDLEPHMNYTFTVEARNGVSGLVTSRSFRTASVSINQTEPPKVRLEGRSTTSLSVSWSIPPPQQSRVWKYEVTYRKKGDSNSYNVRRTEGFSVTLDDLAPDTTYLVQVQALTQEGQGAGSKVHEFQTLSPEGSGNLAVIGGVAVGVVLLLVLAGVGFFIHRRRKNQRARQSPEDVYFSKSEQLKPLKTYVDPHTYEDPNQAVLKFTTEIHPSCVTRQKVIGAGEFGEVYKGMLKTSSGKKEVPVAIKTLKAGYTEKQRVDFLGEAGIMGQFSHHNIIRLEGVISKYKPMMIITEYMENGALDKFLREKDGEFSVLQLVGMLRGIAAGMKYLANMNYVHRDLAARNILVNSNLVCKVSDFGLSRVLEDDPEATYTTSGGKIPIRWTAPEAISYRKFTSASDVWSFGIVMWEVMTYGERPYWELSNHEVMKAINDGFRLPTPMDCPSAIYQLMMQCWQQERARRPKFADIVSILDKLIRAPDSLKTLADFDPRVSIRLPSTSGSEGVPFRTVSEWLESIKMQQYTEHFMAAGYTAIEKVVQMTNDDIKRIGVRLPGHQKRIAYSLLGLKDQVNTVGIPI

This assay has as its target EphA2 receptor (UniProt P29317 24-976, limits assumed). The experiment in a line: cell-based or functional assay.
B1: the “IC50 [pM], +naked hu2H11R35R74 (1 uM); inhibition of growth of MDA-MB231 cells (14C-thymidine uptake)” value is 29700 pM; the “IC50 [pM], conjugate alone; inhibition of growth of MDA-MB231 cells (14C-thymidine uptake)” value (“IC50 [pM], conjugate alone; inhibition” for short) was 147 pM; the “ratio (IC50 +naked hu2H11R35R74 / conjugate alone)” value was determined as 202.

On to B2, for which the “IC50 [pM], +naked hu2H11R35R74 (1 uM); inhibition of growth of MDA-MB231 cells (14C-thymidine uptake)” value stood at 36400 pM; the “IC50 [pM], conjugate alone; inhibition” value stood at 217 pM; the “ratio (IC50 +naked hu2H11R35R74 / conjugate alone)” value turned out to be 168.

In the case of B3, the “IC50 [pM], +naked hu2H11R35R74 (1 uM); inhibition of growth of MDA-MB231 cells (14C-thymidine uptake)” value was found to be 7820 pM; the “IC50 [pM], conjugate alone; inhibition” value worked out at 161 pM; the “ratio (IC50 +naked hu2H11R35R74 / conjugate alone)” value stood at 49.

On to B4, for which the “IC50 [pM], +naked hu2H11R35R74 (1 uM); inhibition of growth of MDA-MB231 cells (14C-thymidine uptake)” value came to 25000 pM; the “IC50 [pM], conjugate alone; inhibition” value is 400 pM; the “ratio (IC50 +naked hu2H11R35R74 / conjugate alone)” value came out at 62.

Source of the values: US20120276124A1 (Sanofi, published 2012).
